Experiments:
[1] = tested on: TSM of epithelium-denuded trachea; assay: CCh-evoked force in trachea with mechanically removed epithelium EP(−); assay type: cell-based, mouse
Description: Histological examination of the structure of the airway and the status of the airway epithelial layer was performed in whole/sectional fresh trachea and as well as trachea cultured overnight with and without 100 nM FIZZ1. To understand the role of airway epithelium in regulating contractility of TSM, we measured the contractile response of tracheal rings after the epithelium was mechanically removed. Briefly, airway epithelial cells were removed by gently rubbing the intraluminal surface with polyethylene tubing (Becton Dickinson & Company, MD USA) connected to a Precision Glide needle (30G1/2) followed by perfusion with 1.0 ml air bubbles and then 1.0 ml K-H solution (re). All of the experimental tracheas were stained with H & E solution (CAT hematoxylin, Edgar Degas Eosin Working Solution, Biocare Medical, Concord, Calif.) and photographed under a light microscope at ×4.0 and ×20 magnification. […]
At the end of each force measurement experiment, tracheas were blotted on a gauze pad and weighted. Results were calculated as milligram of tension per milligram of TSM weight (mg/mg) and expressed as an individual percentage (%) of 10 μM CCh- or 200 μM papaverine-induced tension response in PBS-treated trachea. […]

[2] = tested on: BAL cells; assay: Counts of BAL cells in intranasally challenged mice; assay type: in vivo, mouse; conditions: intranasal once a day×5 days, 100 nM rFIZZ1 or 0.1 ng/ml LPS; vs PBS-treated mice
Description: For some experiments, ex vivo TSM tensions of fresh tracheal rings and BAL cell counts were measured at 24 hours after the last treatment of mice receiving an intranasal dose of either PBS, 0.1 ng/m: LPS or 100 nM rFIZZ1 (once a day×5 days).
PBS- and OA-treated mice were sacrificed and their airways lavaged once with 1.0 mL of PBS via tracheal cannulation. An equal volume of BAL from each mouse was collected and centrifuged (1200 rpm, 5 min). Total BAL cells were counted using a hemocytometer. BAL cells ([…]) collected from each sample were applied to a glass slide using a cytospin (800 rpm, 8 min) and then the slide was stained with Hema 3 Stain Set (Fisher Scientific) for the differential count of cells. The relative proportion of different cells counted from 300 cells/slide was factored to the number of total BAL cells collected in each group.

[3] = tested on: MLCK, MLC-20, α-actin, G proteins, c-Raf/ERK1/2/p38 MAPK in trachea; assay: Western blot of protein expression in treated trachea; assay type: cell-based, mouse
Description: PBS- and FIZZ1-treated trachea were cultured in DMEM overnight for Western blot analysis. Treated and untreated trachea were harvested and homogenized separately in lysis buffer containing 20 mM […], 2.0 mM EGTA, 5.0 mM EDTA, 30 mM sodium fluoride, 40 mM β-glycerophosphate, 20 mM sodium orthovanadate, 1.0 mM phenylmethylsulfonyl-fluoride, 3.0 mM benzamidine, 5 μM pepstatin A, 10 μM leupeptin and 0.5% Triton X-100 at pH 7.2 (KINEXUS, Canada). Tissue supernatants were centrifuged (15,000×g) for 60 min at 4° C. and protein concentrations in the cleared supernatant of homogenized trachea and BAL were examined by bicinchoninic acid assay (BCA) (Pierce Biotechnology, Rockford, Ill.). Absorbance of total protein from each group was measured spectrophotometrically at an optical density of 562 nm and different concentrations of bovine serum albumin (BSA) were applied as a standard curve. Proteins concentrations (μg/ml) were quantified with the standard curve of BSA using BCA assay. Samples were stored at −70° C. until use.
Protein expression levels of were examined using Western blot analysis. Briefly, aliquots (100 μg/well) of BAL supernatant and tracheal lysate were loaded onto 4-20% SDS-PAGE gel in an equal volume. Size-fractionated proteins were transferred to nitrocellulose membrane and then blocked with 5% nonfat dried milk in TBS at room temperature for 60 min. The membrane was individually incubated with primary antibodies to either FIZZ1 (Rabbit anti-mouse FIZZ1, Antigenix America Inc., USA), MLCK, MLC-20, α-actin, Giα1,2, Ggα11, β-actin (Sigma, USA), Gα12/13 (Santa Cruz Biotechnology, Inc., USA), c-Raf, phospho-c-Raf, ERK1/2, phospho-ERK1/2, p38 MAPK or phospho-p38 MAPK (Cell Signaling, Inc., USA) at 4° C. overnight, washed three times with TBS and then incubated with peroxidase-conjugated secondary antibodies for another 60 min. The blot was washed 3 times with TBS and a mixture of Western Blotting Detection Reagent I and II (GE Healthcare Life Sciences, Piscataway, N.J.) was poured on the membrane with gentle agitation for 1 min at room temperature. Immunoreactive bands were detected by chemiluminesence. Protein expression levels were evaluated in relative to expression of β-actin in the same tissue. Quantification of Western blots for phosphorylated signaling proteins was performed using ImageJ and relative band intensity was calculated as % of the intensity of the β-actin protein band.

[4] = 24 hours after rFIZZ1 treatment vs PBS, n=3
[5] = FIZZ1-treated vs PBS-treated trachea, relative to β-actin

B1: rFIZZ1: recombinant FIZZ1 (Leinco Technologies), mouse FIZZ1 protein, resistin-like molecule-α (protein, listed as Mus musculus)
chain: MKTTTCSLLICISLLQLMVPVNTDETIEIIVENKVKELLANIPANYPSTVTKTLSCTSVKTMNRWASCPAGMTATGCACGFACGSWEIQSGDTCNCLCLLV
modifications: (1)..(101) Murine FIZZ1 polypeptide
EP(−) TSM sensitivity to CCh, LogEC50 ([1]; EP(−)/FIZZ1 100 nM, Mean ± SE, N=8): −0.91 ± 0.08 μM
maximal tensions (%), CCh stimulation, EP(−) trachea ([1]; denuded epithelium EP(−) with 100 nM FIZZ1, EP(+) 100±6.22): 141.43±6.65%
number of BAL cells [2]: increase
protein expression levels for α-actin and G proteins (Giα1,2, Gqα11, Gα12/13) ([3]; 100 nM rFIZZ1- vs PBS-treated trachea, normalized to β-actin): similar
level of phosphorylation of c-Raf, ERK1/2 and p38 MAPK, kinetic profile ([3]; 100 nM rFIZZ1, greatly increasing only between 16 and 32 hours): marked time-dependent increase
expression of phospho-ERK1/2 [3, 4]: increased
expression of phospho-c-Raf [3, 4]: increased
expression of phospho-p38 MAPK [3, 4]: increased
expression of unphosphorylated c-Raf ([3]; 24 hours, FIZZ1 vs PBS-cultured trachea): slightly increased
expression of MLC-20 [3, 5]: increase
expression of MLCK [3, 5]: increase

Source: patent US20090274696A1, “METHODS FOR TREATING INFLAMMATION” (WYETH, priority 2008, published 2009)
